± gives the uncertainty stated by the source.

The nature of this series: self-splicing fitness, log relative to wild type (ln ratio); higher = more splicing; Tetrahymena group I intron in knt gene, E. coli kanamycin selection, DiMSum; sequences stand for … in CUCUCU…GGAGGGAAAAGUUAUCAGGCAUGCACCUGGUAGCUAGUCUUUAAACCAAUAGAUUGCAUCGGUUUAAAAGGCAAGACCGUCAAAUUGCGGGAAAGGGGUCAACAGCCGUUCAGUACCAAGUCUCAGGGGAAACUUUGAGAUGGCCUUGCAAAGGGUAUGGUAAUAAGCUGACGGACAUGGUCCUAACCACGCAGCCAAGUCCUAAGUCAACAGAUCUUCUGUUGAUAUGGAUGCAGUUCACAGACUAAAUGUCGGUCGGGGAAGAUGUAUUCUUCUCAUAAGAUAUAGUCGGACCUCUCCUUAAUGGGAGCUAGCGGAUGAAGUGAUGCAACACUGGAGCCGCUGGGAACUAAUUUGUAUGCGAAAGUAUAUUGAUUAGUUUUGGAGUACUCGUGGUCG
In short, it runs like this:
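The eight P1ex-region nucleotides of an intron in the knt kanamycin-resistance gene on pET-22b(+) were all randomised and the library put into E. coli BL21(DE3). Six replicate transformations were grown overnight at 37°C or 30°C on LB agar with or without 25 μg/mL kanamycin, together with 100 μg/mL carbenicillin, 50 μM IPTG and 0.2% rhamnose. Colonies were pooled and amplicon-sequenced on an Illumina HiSeq 2500. Fitness from DiMSum is the error-weighted combination of wild-type-normalised replicate fold changes, kanamycin over none.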

For the sequence CCGAAGCAAUAUUACGUAGA, the “self-splicing fitness (ln)” value (30 °C) was -3.45 ± 0.17 and the “self-splicing fitness (ln)” value (37 °C) is -1.06 ± 0.17. The corresponding values for UUCAAGCAAUAUUACGGCGU are -1.61 ± 0.094 and -0.465 ± 0.12. The corresponding values for ACCGAGCAAUAUUACGACGC are -0.285 ± 0.089 and -0.16 ± 0.11. Take UUUCAGCAAUAUUACGGGUA: the “self-splicing fitness (ln)” value was -0.909 ± 0.1 (30 °C) and -0.337 ± 0.12 (37 °C).

As to AGGGAGCAAUAUUACGAUAG, the “self-splicing fitness (ln)” value was -2.56 ± 0.23 (30 °C) and -2.66 ± 0.3 (37 °C).

Consider GUAUAGCAAUAUUACGCAAG, for which the “self-splicing fitness (ln)” value reads like this: (30 °C) -3.76 ± 0.4; (37 °C) -1.64 ± 0.25. The corresponding values for UUACAGCAAUAUUACGAGCC are -2.86 ± 0.44 and -1.13 ± 0.31.

Turning to ACUGAGCAAUAUUACGCAGU, the “self-splicing fitness (ln)” value by setting is: (30 °C) -2.36 ± 0.24; (37 °C) -1.35 ± 0.2. Take CCGGAGCAAUAUUACGAGUC: the “self-splicing fitness (ln)” value (30 °C) was -3.15 ± 0.26 and the “self-splicing fitness (ln)” value (37 °C) is -1.85 ± 0.28. The corresponding values for CGGCAGCAAUAUUACGCGGG are -2.12 ± 0.12 and -1.42 ± 0.13. Consider ACUCAGCAAUAUUACGCCAC, for which, for the setting “30 °C”, the “self-splicing fitness (ln)” value is -2.88 ± 0.21. On to AGAGAGCAAUAUUACGUUUC, for which the “self-splicing fitness (ln)” value by setting is: (30 °C) -2.27 ± 0.21; (37 °C) -1.41 ± 0.23. In the case of GCGAAGCAAUAUUACGAGCC, under “30 °C”, the “self-splicing fitness (ln)” value is -3.17 ± 0.23. As to AAGCAGCAAUAUUACGCACC, the “self-splicing fitness (ln)” value was -0.735 ± 0.085 (30 °C) and 0.0945 ± 0.09 (37 °C). As for UUGCAGCAAUAUUACGAUCA, the “self-splicing fitness (ln)” value was -1.37 ± 0.12 (30 °C) and -0.0311 ± 0.11 (37 °C). On to CAACAGCAAUAUUACGGAAC, for which the “self-splicing fitness (ln)” value by setting is: (30 °C) -4.2 ± 0.28; (37 °C) -3.48 ± 0.23. The corresponding values for CCAGAGCAAUAUUACGAGAU are -4.57 ± 0.2 and -3.15 ± 0.16. On to GACCAGCAAUAUUACGAGUA, for which the “self-splicing fitness (ln)” value was -1.03 ± 0.087 (30 °C) and 0.128 ± 0.084 (37 °C). With CCAUAGCAAUAUUACGUACU, the “self-splicing fitness (ln)” value (30 °C) is -4.18 ± 0.29 and the “self-splicing fitness (ln)” value (37 °C) was -2.3 ± 0.18. Turning to AGUUAGCAAUAUUACGCUGA, the “self-splicing fitness (ln)” value reads like this: (30 °C) -3.13 ± 0.3; (37 °C) -2.05 ± 0.27. The corresponding values for AGACAGCAAUAUUACGUUUG are -3.34 ± 0.11 and -1.22 ± 0.086.

In the case of ACCUAGCAAUAUUACGUCAG, the “self-splicing fitness (ln)” value by setting is: (30 °C) -3.93 ± 0.19; (37 °C) -1.85 ± 0.1. GGUUAGCAAUAUUACGGUUC: the “self-splicing fitness (ln)” value runs as follows: (30 °C) -0.571 ± 0.086; (37 °C) -0.114 ± 0.11. The corresponding values for UCCAAGCAAUAUUACGAGUA are -0.957 ± 0.099 and -0.576 ± 0.084. For the sequence UAAGAGCAAUAUUACGUGGU, the “self-splicing fitness (ln)” value was -3.74 ± 0.24 (30 °C) and -2.57 ± 0.19 (37 °C).

Turning to ACUGAGCAAUAUUACGGUUA, the “self-splicing fitness (ln)” value runs as follows: (30 °C) -2.56 ± 0.21; (37 °C) -1.9 ± 0.17. The corresponding values for AUAAAGCAAUAUUACGAUAC are -1.39 ± 0.12 and -0.441 ± 0.14. With GUACAGCAAUAUUACGGGGA, the “self-splicing fitness (ln)” value by setting is: (30 °C) -3.21 ± 0.25; (37 °C) -2.33 ± 0.19.

As for AUACAGCAAUAUUACGAUCU, the “self-splicing fitness (ln)” value reads like this: (30 °C) -0.478 ± 0.077; (37 °C) -0.0165 ± 0.087.

As to UUGUAGCAAUAUUACGCUCA, the “self-splicing fitness (ln)” value by setting is: (30 °C) -1.27 ± 0.14; (37 °C) 0.0359 ± 0.18. The corresponding values for UCAGAGCAAUAUUACGUGUC are -4.13 ± 0.31 and -2.63 ± 0.23. The corresponding values for GCACAGCAAUAUUACGAUCU are -0.54 ± 0.064 and 0.0668 ± 0.085. For GAUUAGCAAUAUUACGCGGC, the “self-splicing fitness (ln)” value reads like this: (30 °C) -3.08 ± 0.38; (37 °C) -2 ± 0.35. The corresponding values for CGCAAGCAAUAUUACGUAUC are -3.14 ± 0.13 and -2.33 ± 0.19. In the case of GAGGAGCAAUAUUACGGGUG, the “self-splicing fitness (ln)” value is -3.55 ± 0.27 (30 °C) and -1.95 ± 0.32 (37 °C).

For the sequence GUGUAGCAAUAUUACGGAGG, the “self-splicing fitness (ln)” value is, setting by setting: (30 °C) -3.89 ± 0.29; (37 °C) -2.67 ± 0.22. The corresponding values for UAGAAGCAAUAUUACGUGAC are -3.33 ± 0.24 and -2.28 ± 0.28.

Regarding GCCAAGCAAUAUUACGGAUC, the “self-splicing fitness (ln)” value is -0.959 ± 0.071 (30 °C) and -0.179 ± 0.098 (37 °C). The corresponding values for CGUAAGCAAUAUUACGUAAG are -1.49 ± 0.1 and -0.165 ± 0.092. The corresponding values for AGCAAGCAAUAUUACGUGGA are -2.85 ± 0.15 and -1.85 ± 0.12. As for CGACAGCAAUAUUACGUGUA, the “self-splicing fitness (ln)” value (30 °C) is -3 ± 0.14 and the “self-splicing fitness (ln)” value (37 °C) was -1.59 ± 0.1. The corresponding values for UACCAGCAAUAUUACGCGAC are -3.1 ± 0.11 and -1.58 ± 0.12.

As for UAGGAGCAAUAUUACGGGUA, the “self-splicing fitness (ln)” value (30 °C) was -1.45 ± 0.17 and the “self-splicing fitness (ln)” value (37 °C) was -2.13 ± 0.21.

For the sequence AACAAGCAAUAUUACGGUCA, the “self-splicing fitness (ln)” value (30 °C) is -0.52 ± 0.043 and the “self-splicing fitness (ln)” value (37 °C) turned out to be 0.199 ± 0.062. The corresponding values for UAUUAGCAAUAUUACGUAAC are -1.8 ± 0.19 and -1.09 ± 0.2.

AGACAGCAAUAUUACGGAAU: the “self-splicing fitness (ln)” value runs as follows: (30 °C) -3.47 ± 0.14; (37 °C) -2.29 ± 0.17. Take AUCUAGCAAUAUUACGCCCU: the “self-splicing fitness (ln)” value is -0.479 ± 0.19 (30 °C) and 0.46 ± 0.19 (37 °C). With UGCUAGCAAUAUUACGUGGG, the “self-splicing fitness (ln)” value runs as follows: (30 °C) -3.58 ± 0.27; (37 °C) -3.28 ± 0.35. The corresponding values for UCUAAGCAAUAUUACGGAUG are -2.9 ± 0.26 and -1.99 ± 0.29. Turning to GGGUAGCAAUAUUACGCGGU, the “self-splicing fitness (ln)” value reads like this: (30 °C) -3.15 ± 0.21; (37 °C) -1.4 ± 0.2. The corresponding values for AGGCAGCAAUAUUACGAAUC are -2.29 ± 0.29 and -2.07 ± 0.24.

On to GUGUAGCAAUAUUACGUCCA, for which the “self-splicing fitness (ln)” value was -1.74 ± 0.38 (30 °C) and -0.639 ± 0.39 (37 °C). GUAAAGCAAUAUUACGGCGA: the “self-splicing fitness (ln)” value was -0.00421 ± 0.11 (30 °C) and -0.231 ± 0.17 (37 °C). Turning to AAAGAGCAAUAUUACGCGGC, for the setting “37 °C”, the “self-splicing fitness (ln)” value is -3.08 ± 0.4. Turning to CCGUAGCAAUAUUACGUAUU, the “self-splicing fitness (ln)” value is, setting by setting: (30 °C) -4.16 ± 0.28; (37 °C) -3.58 ± 0.39. Consider CUCAAGCAAUAUUACGACAU, for which the “self-splicing fitness (ln)” value is -3.206 ± 0.018 (30 °C) and -1.9 ± 0.034 (37 °C). As to CCGUAGCAAUAUUACGGGUG, the “self-splicing fitness (ln)” value (30 °C) was -3.59 ± 0.21 and the “self-splicing fitness (ln)” value (37 °C) was -2.11 ± 0.16. The corresponding values for GACCAGCAAUAUUACGGUAG are -0.241 ± 0.066 and 0.668 ± 0.085. As for GAAGAGCAAUAUUACGCCUA, the “self-splicing fitness (ln)” value runs as follows: (30 °C) -2.55 ± 0.34; (37 °C) -1.3 ± 0.25. The corresponding values for AAUUAGCAAUAUUACGCUCU are -0.501 ± 0.11 and 0.54 ± 0.15.

With AAAGAGCAAUAUUACGCUGC, the “self-splicing fitness (ln)” value was -3.15 ± 0.14 (30 °C) and -2.84 ± 0.21 (37 °C). In the case of UUGCAGCAAUAUUACGAACC, the “self-splicing fitness (ln)” value (30 °C) is -1.76 ± 0.45. Take CGCUAGCAAUAUUACGUACU: the “self-splicing fitness (ln)” value reads like this: (30 °C) -2.86 ± 0.15; (37 °C) -0.0116 ± 0.18. For GCCCAGCAAUAUUACGACGG, the “self-splicing fitness (ln)” value by setting is: (30 °C) -3.59 ± 0.25; (37 °C) -3.13 ± 0.33. Take CUCCAGCAAUAUUACGGGGA: the “self-splicing fitness (ln)” value is, setting by setting: (30 °C) -3.46 ± 0.18; (37 °C) -0.678 ± 0.1. The corresponding values for GGAAAGCAAUAUUACGGUCG are 0.127 ± 0.092 and -0.296 ± 0.12.

Take GUUUAGCAAUAUUACGAACA: the “self-splicing fitness (ln)” value (30 °C) was -2.02 ± 0.39 and the “self-splicing fitness (ln)” value (37 °C) is -1.24 ± 0.26. The corresponding values for GUUAAGCAAUAUUACGACAU are -0.0837 ± 0.013 and 0.118 ± 0.033. As to AGUGAGCAAUAUUACGACCG, the “self-splicing fitness (ln)” value (37 °C) was -0.72 ± 0.27. On to CUUGAGCAAUAUUACGGCGG, for which the “self-splicing fitness (ln)” value runs as follows: (30 °C) -1.13 ± 0.1; (37 °C) -0.746 ± 0.14. As to UCCGAGCAAUAUUACGAGUG, the “self-splicing fitness (ln)” value is -2.41 ± 0.09 (30 °C) and -1.34 ± 0.094 (37 °C).

For the sequence UGUAAGCAAUAUUACGAGGG, the “self-splicing fitness (ln)” value runs as follows: (30 °C) -3.68 ± 0.27; (37 °C) -2.14 ± 0.3. In the case of AGUGAGCAAUAUUACGCGUA, the “self-splicing fitness (ln)” value (30 °C) was -1.97 ± 0.27 and the “self-splicing fitness (ln)” value (37 °C) is -1.48 ± 0.17. Turning to AUCGAGCAAUAUUACGAUUU, the “self-splicing fitness (ln)” value reads like this: (30 °C) -1.42 ± 0.11; (37 °C) -0.535 ± 0.13.

As for AAAGAGCAAUAUUACGACGA, the “self-splicing fitness (ln)” value is -2.27 ± 0.23 (30 °C) and -2.57 ± 0.25 (37 °C). The corresponding values for AUUUAGCAAUAUUACGAAUG are -2.39 ± 0.19 and -0.72 ± 0.21.

The values above are taken from the supplement of paper PMC7877785.
